The target in data set [1] is T1, glycated haemoglobin (Hb-AGE) (Homo sapiens, UniProt P68871+P69905).
T1 construct: purchased Sigma-Aldrich H7379
The data set can be described thus: ELISA binding of recombinant human BiP to Hb-AGE, with or without tPA or K2P-tPA. The settings on record: cell culture supernatant of HEK 293E cells. From the text:
Absorbance was read at 450 nm.
The threefold diluted cell supernatants were applied to the ELISA plate in duplicates and BiP binding was subsequently measured as described above. Coat efficiency was checked with specific anti-AGE antibody, anti-albumin antibody and anti-Hb antibody.
On the technique in general: ELISA stands for enzyme-linked immunosorbent assay.

The target in data set [2] is T2, glycated albumin (BSA-AGE) (Bos taurus, UniProt P02769).
T2 construct: purchased Sigma-Aldrich A-7906
T2 sequence (P02769 25-607): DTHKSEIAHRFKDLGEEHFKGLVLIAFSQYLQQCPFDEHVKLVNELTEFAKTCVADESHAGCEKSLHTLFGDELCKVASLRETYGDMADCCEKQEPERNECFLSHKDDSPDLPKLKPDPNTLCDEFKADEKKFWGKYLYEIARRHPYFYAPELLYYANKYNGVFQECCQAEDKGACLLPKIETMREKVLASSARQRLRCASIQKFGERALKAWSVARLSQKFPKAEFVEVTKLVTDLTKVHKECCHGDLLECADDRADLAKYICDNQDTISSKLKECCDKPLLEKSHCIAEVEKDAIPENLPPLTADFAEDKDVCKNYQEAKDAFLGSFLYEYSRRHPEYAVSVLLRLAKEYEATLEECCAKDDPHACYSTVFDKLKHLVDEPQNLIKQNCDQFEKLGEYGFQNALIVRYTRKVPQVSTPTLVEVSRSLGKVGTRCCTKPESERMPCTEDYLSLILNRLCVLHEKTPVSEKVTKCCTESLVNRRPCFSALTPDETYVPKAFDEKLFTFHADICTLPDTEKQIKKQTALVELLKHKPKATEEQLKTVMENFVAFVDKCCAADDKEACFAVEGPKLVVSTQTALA
The data set can be described thus: ELISA binding of recombinant human BiP to BSA-AGE, with or without tPA or K2P-tPA. Details: species or system bovine. As to conditions: cell culture supernatant of HEK 293E cells. Here is the method:
Proteins at 5 μg/ml were coated for 1 h at room temperature with agitation, in Microlon high-binding ELISA plates (Greiner) in 50 mM NaHCO3 pH 9.6. Buffer was coated as negative control. A twofold dilutions series of cell culture supernatant of HEK 293E cells over-expressing BiP was also coated to the plate for anti-FLAG-tag antibody control purposes. Plates were washed and blocked with ½*Blocking reagent (Roche). Undiluted cell culture supernatant enriched with 0.1% Tween20 was added to the wells with immobilized protein ligands and incubated for 1 h at room temperature with agitation. Medium was discarded and the plate was washed with PBS with 0.1% v/v Tween20. Mouse monoclonal anti-FLAG-tag antibody (Sigma, A8592, anti-FLAG M2PO conjugate) was diluted 1000× in PBS/0.1% Tween20 and added to all wells, including those that are coated with cell culture supernatant. After a 1 h incubation at room temperature with agitation and after washing, wells were overlayed with 3000× diluted RAMPO (DAKOCytomation) in PBS/0.1% Tween20. […] Absorbance was read at 450 nm.
Hb-AGE, Hb, BSA-AGE, BSA and buffer were coated. The threefold diluted cell supernatants were applied to the ELISA plate in duplicates and BiP binding was subsequently measured as described above. […]

Data set [3] concerns the target T3, tPA (Homo sapiens, UniProt P00750). The data set can be described thus: ELISA binding of β2GPI to immobilized tPA. As to conditions: tPA immobilized. Here is the method: (§1) Binding of β2GPI was assessed with monoclonal antibody 2B2^17.
In data set [4] the test system is anti-β2GPI auto-antibodies from antiphospholipid syndrome patients. The data set can be described thus: Interference with binding of anti-β2GPI autoantibodies to immobilized β2GPI. Further details: species or system human. The settings on record: concentration series of β2GPI in solution. Here is the method: β2GPI by recombinant β2GPI and not by plasma derived β2GPI When plasma derived β2GPI is coated onto hydrophilic ELISA plates, anti-β2GPI auto-antibodies isolated from plasma of antiphospholipid syndrome autoimmune patients can bind^18. To study the influence of coincubations of the coated β2GPI with the antibodies together with plasma β2GPI or recombinant β2GPI, concentration series of β2GPI were added to the patient antibodies. Subsequently, binding of the antibodies to coated β2GPI was determined.

The target in data set [5] is T3, tPA. The data set can be described thus: Plasminogen activation assay (tPA-mediated conversion of Plg to plasmin). Details: purchased Boehringer-Ingelheim Actilyse. Format: biochemical. The settings on record: 100 μg ml^−1 protein or peptide, 400 pM tPA, substrate S-2251. Here is the method:
Plasmin (Plm) activity was assayed as described^4. Peptides and proteins that were tested for their stimulatory ability were used at 100 μg ml^−1, unless stated otherwise. […] Chromogenic substrate S-2251 (Chromogenix, Instrumentation Laboratory SpA, Milano, Italy) was used to measure Pls activity.
Purification of β2-glycoprotein I (β2GPI) was performed according to established methods^15,16. Recombinant human β2GPI was made using insect cells and purified as described^15. Plasma derived β2GPI as used in a factor XII ELISA, the Plg-activation assay and in the anti-phospholipid syndrome antibody ELISA (see below), was purified from fresh human plasma as described^16. […]
Solutions of fibrin peptide FP6, NH2—IDIKIR-COOH (Peptide facility, Dutch Cancer Institute, Amsterdam, the Netherlands) were prepared in various ways. […] Separate samples were prepared similarly and analyzed by electron spray ionization mass spectrometry (ESI-MS) to obtain information on the distribution of the peptide over putatively present oligomers (Dr C. Versluis, Department of Biomolecular Mass Spectrometry, Bijvoet Center for Biomolecular Research, Utrecht University, Utrecht, The Netherlands). […] Micrographs were recorded at 80 kV, at suitable magnifications on a JEM-1200EX electron microscope (JEOL, Japan).

The target of another data set is T4, factor XII (Homo sapiens, UniProt P00748).
T4 sequence (P00748 20-615): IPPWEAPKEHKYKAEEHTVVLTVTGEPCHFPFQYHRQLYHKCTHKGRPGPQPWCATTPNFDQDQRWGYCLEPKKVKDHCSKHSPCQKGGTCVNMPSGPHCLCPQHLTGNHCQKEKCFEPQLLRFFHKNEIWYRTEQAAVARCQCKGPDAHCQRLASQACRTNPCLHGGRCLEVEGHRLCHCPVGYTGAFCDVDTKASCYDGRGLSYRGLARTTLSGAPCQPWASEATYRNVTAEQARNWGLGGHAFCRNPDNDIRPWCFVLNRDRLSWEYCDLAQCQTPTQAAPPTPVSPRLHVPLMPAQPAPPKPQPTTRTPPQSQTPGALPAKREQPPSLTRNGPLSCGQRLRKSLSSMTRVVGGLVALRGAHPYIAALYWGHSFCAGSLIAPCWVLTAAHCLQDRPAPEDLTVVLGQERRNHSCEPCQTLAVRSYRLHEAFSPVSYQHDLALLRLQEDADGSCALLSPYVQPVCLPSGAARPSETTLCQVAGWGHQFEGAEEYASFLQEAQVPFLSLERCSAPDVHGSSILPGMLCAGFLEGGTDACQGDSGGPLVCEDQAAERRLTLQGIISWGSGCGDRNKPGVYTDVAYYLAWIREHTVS
The data set can be described thus: ELISA binding of β2GPI to immobilized factor XII. Further details: human factor XII from plasma (Calbiochem); purchased Calbiochem; host or cells: human plasma. The settings on record: factor XII immobilized. Here is the method:
as §1

T3 sequence (P00750 36-562): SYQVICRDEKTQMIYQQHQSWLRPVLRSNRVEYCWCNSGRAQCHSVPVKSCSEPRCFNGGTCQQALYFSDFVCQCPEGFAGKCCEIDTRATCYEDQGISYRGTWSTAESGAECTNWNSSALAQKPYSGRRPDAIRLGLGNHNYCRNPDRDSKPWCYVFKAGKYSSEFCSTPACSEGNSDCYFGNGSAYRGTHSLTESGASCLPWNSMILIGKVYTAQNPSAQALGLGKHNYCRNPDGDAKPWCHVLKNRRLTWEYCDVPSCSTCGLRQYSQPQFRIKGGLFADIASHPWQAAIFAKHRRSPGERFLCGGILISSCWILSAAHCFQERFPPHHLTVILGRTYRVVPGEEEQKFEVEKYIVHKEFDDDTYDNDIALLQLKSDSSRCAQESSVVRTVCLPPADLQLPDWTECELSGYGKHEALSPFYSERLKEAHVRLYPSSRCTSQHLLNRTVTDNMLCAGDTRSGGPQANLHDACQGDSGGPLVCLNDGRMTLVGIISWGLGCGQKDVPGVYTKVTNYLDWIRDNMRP
T1 sequence (P69905 2-142 limits assumed): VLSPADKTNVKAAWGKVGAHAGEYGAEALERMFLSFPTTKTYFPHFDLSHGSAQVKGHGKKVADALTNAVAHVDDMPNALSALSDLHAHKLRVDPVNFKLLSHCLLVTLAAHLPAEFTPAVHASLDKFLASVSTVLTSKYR
T1 sequence (P68871 2-147 limits assumed): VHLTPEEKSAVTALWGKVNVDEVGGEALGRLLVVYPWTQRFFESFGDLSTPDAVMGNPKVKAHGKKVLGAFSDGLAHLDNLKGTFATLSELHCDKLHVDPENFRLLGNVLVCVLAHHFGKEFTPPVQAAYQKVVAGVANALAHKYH

On to “BiP: recombinant human BiP with carboxy-terminal linker, FLAG-tag and His-tag, expressed in HEK 293E cells”, for which, in data set [1], the “BiP binding to Hb-AGE and native haemoglobin” value was “binds to glycated haemoglobin (Hb-AGE) and to a lesser extent to coated native haemoglobin”. Also, the “BiP binding to BSA-AGE and native BSA” value in data set [2] was “binds to glycated albumin (BSA-AGE) and not to native BSA”.

B1: Recombinant β2GPI: recombinant human β2-glycoprotein I made using insect cells (protein, UniProt P02749 20-345, looked up)
Beta-2-glycoprotein 1: GRTCPKPDDLPFSTVVPLKTFYEPGEEITYSCKPGYVSRGGMRKFICPLTGLWPINTLKCTPRVCPFAGILENGAVRYTTFEYPNTISFSCNTGFYLNGADSAKCTEEGKWSPELPVCAPIICPPPSIPTFATLRVYKPSAGNNSLYRDTAVFECLPQHAMFGNDTITCTTHGNWTKLPECREVKCPFPSRPDNGFVNYPAKPTLYYKDKATFGCHDGYSLDGPEEIECTKLGNWSAMPSCKASCKVPVKKATVVYQGERVKIQEKFKNGMLHGDKVSFFCKNKEKKCSYTEDAQCIDGTIEVPKCFKEHSSLAFWKTDASDVKPC
modifications: recombinant, insect cells
Take B1: in the data set with tPA [3], the “kD of binding to tPA” value came to 2.3 µg/mL. The “inhibition of binding of anti-β2GPI auto-antibodies to immobilized β2GPI” value in data set [4] is recorded as “efficiently inhibits binding of anti-β2GPI auto-antibodies to immobilized β2GPI”. In addition, the “stimulation of tPA-mediated conversion of Plg to plasmin” value in the data set with tPA [5] is given as “stimulate tPA-mediated conversion of Plg to plasmin”. Also, the “kD of binding to factor XII” value with factor XII was 0.9 µg/mL.

These data come from patent US20080267948A1, “Croos-B Structure Binding Compounds” (priority 2005, published 2008).
